Each block holds one binder with its values, some of them ahead of it.
How the values were obtained:
[1] = target: T1, human CLIC1 protein located on the plasma membrane (tmCLIC1) (human, UniProt O00299 2-241); test: not specified (same experimental models as tmCLIC1omab)
[2] = target: T1, human CLIC1 protein located on the …; test: cell-based or functional assay
[3] = target: CLIC1 protein of microglial cells (BV-2), transmembrane form after stimulation (mouse, UniProt Q9Z1Q5 2-241); test: cell-based or functional assay
QVELF sequence = target: T2, QVELF sequence (human); test: PEPperMAP linear peptide microarray
T2 peptide: QVELF
Description: (§1) PEPperMAP epitope Mapping® of the tmCLIC1omab antibody was conducted against the peptide […] (amino acids 3-24 of the CLIC1 protein) translated to linear peptides consisting of 5, 10 and 15 amino acids with peptide-peptide overlaps of 4, 9 and 14 amino acids for high-resolution epitope data. The resulting CLIC1 peptide microarrays were incubated with the antibody samples at concentrations of 1 μg/ml, 10 μg/ml, 100 μg/ml and 250 μg/ml in incubation buffer, followed by staining with secondary and control antibodies and reading with a LI-COR Odyssey Imaging System. The intensity of the points and peptide annotation were quantified with the PepSlide® Analyzer.
(§2) Conversely, incubation of a second copy of the microarray of CLIC1 peptides with the tmCLIC1omab monoclonal antibody gave an antibody response with the epitopes formed by peptides adjacent to the VELF consensus motif (SEQ ID NO:22), with all peptide lengths having low or moderate signal-to-noise ratios. Additional very weak interactions of the antibody with the HA control peptides were observed, perhaps because of a cross-reaction or a less specific antibody bond. With the peptides consisting of 10 and […], longer […] (10 aa) (SEQ ID NO:23) and […] (15 aa) (SEQ ID NO:24) consensus motifs were observed, the underlined letters of which form part of linker […] (SEQ ID NO:25) specific to the microarray.

QVELFV sequence = target: T3, QVELFV sequence (human); test: PEPperMAP linear peptide microarray
T3 peptide: QVELFV
Description: as §1, §2

binding result [1]: binds
B1: class IgG2b antibody containing the heavy chain variable region SEQ ID NO:15 and the light chain variable region SEQ ID NO:16 (antibody, V domains shown)
VH: EVKLVESGGGLVKPGGSLKLSCAASGFTFSGYVMSWVRQTPDKRLEWVASISSGGSSYYSDRVKGRLTISRDNARNILFLQMSSLRSEDSAMYYCANGYNYAMDYWGQGTSVTVSS
VL: DIVMTQSHKFMSISVGDRVSITCKASQDVGTAVAWYQQKPGQSPQLLIYWASTWHTGVPDRFTGSGSGTDFTLTITNVQSEDLADYFCQQYKLFPLTFGAGTRLELK
notes: IgG2b

ROS production over time in human glioblastoma cells (fluorescence) [2]: ~5 fold
membrane current, patch-clamp in whole-cell configuration on BV2 microglial cells after β-amyloid [3]: ~4 fold
binding result (QVELF sequence): binds
binding result (QVELFV sequence): binds
B2: tmCLIC1omab (antibody, IgG1, V domains shown)
VH: EVMLVESGGGLVKPGGSLKLSCAASGFAFSNYAMSWIRQIPEKRLEWVATISTGGSSTFYPDSVKGRFTISRDNAKNTLYLQMSSLRSEDTAMYYCTRHAYEAWFAYWGQGTLVTVSA
VL: QIVLTQSPALMSASPGEKVTMTCSASSSVSYMYWYQQRPRSSPKPWIYLTSTLASGVPTRFSGSGSGTSYSLTISSMEAEDAATYYCQQWNSHPLTFGSGTKLEIK
notes: IgG1 class monoclonal antibody from mouse hybridoma; also called tmCLIComab; anti-tmCLIC1 monoclonal antibody

From patent publication US20240002499A1 (UNIVERSITA DEGLI STUDI DI MILANO, published 2024)
